Columns and labels:
Human Cadherin-19 = target: T1, Human Cadherin-19 (human, UniProt Q9H159 44-772); assay: FACS, endogenous CDH-19 on CHL-1 and Colo699 tumor cells
T1 construct: also called CDH19; huCDH19

Cyno Cadherin-19 = target: T2, Cyno Cadherin-19 (cynomologous monkey (Macaca …, UniProt Q9H159 44-772 (human entry))); assay: FACS, recombinant cynomologous CDH-19
T2 construct: also called cynomologous monkey CDH-19
T2 chain: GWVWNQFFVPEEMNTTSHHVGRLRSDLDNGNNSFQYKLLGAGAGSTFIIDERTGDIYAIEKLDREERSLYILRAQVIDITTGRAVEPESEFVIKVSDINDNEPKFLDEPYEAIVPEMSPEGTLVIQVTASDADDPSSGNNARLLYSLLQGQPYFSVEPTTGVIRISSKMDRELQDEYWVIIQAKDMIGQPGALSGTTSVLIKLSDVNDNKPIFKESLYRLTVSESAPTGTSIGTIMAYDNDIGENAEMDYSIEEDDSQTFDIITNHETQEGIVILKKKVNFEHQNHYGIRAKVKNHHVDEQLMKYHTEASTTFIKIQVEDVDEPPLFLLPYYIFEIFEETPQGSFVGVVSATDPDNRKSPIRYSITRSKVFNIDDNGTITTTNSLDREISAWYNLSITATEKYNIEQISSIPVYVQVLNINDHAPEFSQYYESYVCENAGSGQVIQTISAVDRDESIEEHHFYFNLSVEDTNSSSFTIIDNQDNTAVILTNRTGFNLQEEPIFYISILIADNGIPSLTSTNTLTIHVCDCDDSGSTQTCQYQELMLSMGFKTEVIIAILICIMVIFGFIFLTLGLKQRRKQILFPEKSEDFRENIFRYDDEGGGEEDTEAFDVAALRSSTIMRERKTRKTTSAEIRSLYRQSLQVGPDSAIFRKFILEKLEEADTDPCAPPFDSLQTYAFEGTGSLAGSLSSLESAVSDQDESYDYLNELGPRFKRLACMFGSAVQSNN

[1] = target: huCDH19(44-772) with Flag tag (construct A, Hu EC1-5) (human, UniProt Q9H159 44-772); assay: flow cytometry, transfected 293T cells
[2] = target: T3, huCDH19(44-141)::muCDH19(140-770) with Flag tag (construct B, Hu EC1) (human/mouse chimera); assay: flow cytometry, transfected 293T cells
T3 construct: leader left out; the entry starts at residue 44; also called C137897

[3] = target: T4, huCDH19(44-249)::muCDH19(248-770) with Flag tag (construct C, Hu EC1-2) (human/mouse chimera); assay: flow cytometry, transfected 293T cells
T4 construct: leader left out; the entry starts at residue 44; also called C137896

B1: hu anti-<huCDH19> 25G10.1 (Ab ID 13883) (antibody, human IgG1, kappa, V domains shown)
VH: QVQLQESGPGLVKPSETLSLTCTVSGGSISGYYWSWIRQPPGKGLEWIGYIYYIGSTNYNPSLKSRVTMSVDTSKNQFSLKLSSVTAADTAVYYCARDGSSGWYRWFDPWGQGTLVTVSS
VL: EIVLTQSPGTLSLSPGERATLSCRASQSVSSSYLAWYQQKPGQAPRLLIFGASSRATGIPDRFSGSGSGTDFTLTISRLEPEDFAVYHCQQYGNSPLTFGGGTKVEIKR
notes: huIgG1z / huKLC; Bin 3
B1: binds (Human Cadherin-19).

B2: hu anti-<huCDH19> 16C1.1 (Ab ID 13875) (antibody, human IgG1, kappa, V domains shown)
VH: QVQLQESGPGLVKPSETLSLTCTVSGGSISGYYWSWIRQPPGKGLEWIGYIYYIGSTNYNPSLKSRVTMSIDTSKNQFSLTLSSLTAADTAVYFCARDGSSGWYRWFDPWGQGTLVTVSS
VL: EIVLTQSPGTLSLSPGERATLSCRASQSVSSSYLAWYQQKPGQAPRLLIFGASSRATGIPDRFSGSGSGTDFTLTISGLEPEDFAVYHCQQYGNSPLTFGGGTKVEIKR
notes: huIgG1z / huKLC; Bin 3
B2: binds (Human Cadherin-19).

B3: hu anti-<huCDH19> 20D3.1 (Ab ID 13878) (antibody, human IgG1, lambda, V domains shown)
VH: QVQLVQSGAEVKKPGASVKVSCKVSGYTFTSYFIHWVRQAPGQGLEWMGIINPISVSTSYAQKFQGRVTMTRDTSTSTVFMELSSLRSEDTAVYYCARGGIQLWLHFDYWGQGTLVTVSS
VL: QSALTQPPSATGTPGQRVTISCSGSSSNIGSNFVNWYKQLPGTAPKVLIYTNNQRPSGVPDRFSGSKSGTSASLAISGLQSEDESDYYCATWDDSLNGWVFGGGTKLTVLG
notes: huIgG1z / huLLC-C2; Bin 2; also called 16H2; 23E7
B3: binds (Cyno Cadherin-19); binds (Human Cadherin-19).

B4: hu anti-<huCDH19> 22D1.1 (Ab ID 13879) (antibody, human IgG1, lambda, V domains shown)
VH: QVQLVQSGAEVKKPGASVRVSCKVSGYTFTSYFIHWVRQAPGQGLEWMGIINPISVSTSYAQKFQGRVTMTRDTSTSTVFMELSSLRSEDTAVYYCARGGIQLWLHLDYWGQGTLVTVSS
VL: QSALTQPPSATGTPGQRVTISCSGSSSNIGSNFVNWYKQLPGTAPKVLIYTNNQRPSGVPDRFSGSKSGTSASLAISGLQSEDESDYYCATWDDSMNGWVFGGGTKLTVLG
notes: huIgG1z / huLLC-C2; Bin 2
B4: binds (Cyno Cadherin-19); binds (Human Cadherin-19).

B5: hu anti-<huCDH19> 19B5.1 (Ab ID 13885) (antibody, human IgG1, lambda, V domains shown)
VH: QVQLVQSGAEVKKPGASVKVSCKVSGYTFTSYFIHWVRQAPGQGLEWMGIINPISVSTSYAQKFQGRVTMTRDTSTSTVFMELSSLRSEDTAVYYCARGGIQLWLHLDYWGQGTLVTVSS
VL: QSALTQPPSTTGTPGQRVTISCSGSRSNIGSNFVNWYKQLPGTAPKVLIYTNNQRPSGVPDRFSGSKSGTSASLAISGLQSEDESDYYCATWDDSMNGWVFGGGTKLTVLG
notes: huIgG1z / huLLC-C2; Bin 2
B5: binds (Cyno Cadherin-19); binds (Human Cadherin-19).

B6: hu anti-<huCDH19> 4A9 VH::huIgG1z + 4A9 (1-239)(F47L) VL::huLLC-C1 (Ab ID 14056) (antibody, V domains shown)
VH: QVQLQESGPGLVKPSETLSLTCTVSGGSISGYYWSWIRQPPGKGLEWFAYFSYSGSTNYNPSLKSRVTLSVDTSKNQFSLKLSSVTAADTAVYYCARNWAFHFDFWGQGTLVTVSS
VL: QSVLTQPPSVSGAPGQRVTISCTGSSSNIGTGYAVHWYQQLPGTAPKLLIYGNNNRPSGVPDRFSGSKSGTSASLAITGLQAEDEADYYCQSYDSRLSGWVFGGGTKLTVLG
notes: Engineered variant of 4A9; the entries already carry the changes; Bin 1
B6: binds [1]; binds [2]; binds [3].

B7: hu anti-<huCDH19> 4F7 (Ab ID 13591) (antibody, human IgG1, lambda, V domains shown)
VH: QVQLQESGPGLVKPSETLSLTCTVSGGSISSYSWSWIRQPPGKGLEWIGYIYYSGSTNYNPSLKSRVTISLDTSKNQFSLKLSSVTAADTAVYYCARNWAFHFDYWGQGTLVTVSS
VL: QSVLTQPPSVSGAPGQRVTISCTGSSSNIGTGYDVHWYQQLPGTAPKLLIHGNSNRPSGVPDRFSGSKSGTSASLAITGLQAEDEADYYCQSYDSSLSGWVFGGGTRLTVLG
notes: huIgG1z / huLLC-C1; Bin 1
B7: binds (Cyno Cadherin-19); binds (Human Cadherin-19).

B8: hu anti-<huCDH19> 4A9 (1-468)(F55I,A56G) VH::huIgG1z + 4A9 (1-239)(F47L) VL::huLLC-C1 (Ab ID 14057) (antibody, V domains shown)
VH: QVQLQESGPGLVKPSETLSLTCTVSGGSISGYYWSWIRQPPGKGLEWIGYFSYSGSTNYNPSLKSRVTLSVDTSKNQFSLKLSSVTAADTAVYYCARNWAFHFDFWGQGTLVTVSS
VL: QSVLTQPPSVSGAPGQRVTISCTGSSSNIGTGYAVHWYQQLPGTAPKLLIYGNNNRPSGVPDRFSGSKSGTSASLAITGLQAEDEADYYCQSYDSRLSGWVFGGGTKLTVLG
notes: as for B6
B8: binds [1]; binds [2]; binds [3].

B9: hu anti-<huCDH19> 22G10.1 (Ab ID 13877) (antibody, human IgG1, kappa, V domains shown)
VH: EVQLLESGGGLVQPGGSLRLSCAASGFTFSSYAMNWVRQAPGKGLEWVSTISGGGANTYYADSVKGRFTISSDNSKSTLYLQMNSLRAADTAVYHCAKGGMGGYYYGMDVWGQGTTVTVSS
VL: EIVMTQSPVTLSLSLGERATLSCRASQSISSNLAWFQQKPGQAPRLLIYGAFTRATGIPARVSGSGSGTEFTLTISSLQSEDFAVYYCQQYNYWPLTFGGGTKVEIKR
notes: huIgG1z / huKLC; Bin 3
B9: binds (Cyno Cadherin-19); binds (Human Cadherin-19).

B10: hu anti-<huCDH19> 4B10 (1-471)(R17G,D61E,D72E) VH::huIgG1z + 4B10 (1-236)(H45Q,A90T) VL::huKLC (Ab ID 14055) (antibody, V domains shown)
VH: QVQLVESGGGVVQPGGSLRLSCAASGFTFSSYDMHWVRQAPGKGLEWVAVISYEGTNEYYAESVKGRFTISRDTSKNTLYLQMNSLRAEDTAVYYCARERYFDWSFDYWGQGTLVSVSS
VL: EIVLTQSPGTLSLSPGERATLSCRASQSVSNTYLAWYQQRPGQAPRLLIYGASSRATGIPDRFSGSGSGTDFTLTISSLEPEDFAVYYCQQYSNSWTFGQGTKVEIKR
notes: Engineered variant of 4B10; the entries already carry the changes; Bin 4
B10: binds [1].

B11: anti-CDH19 antibody 23A10 (Ab ID 13884) (antibody, human IgG1, lambda, V domains shown)
VH: QVQLVESGGGVVQPGRSLRLSCAASGFTFSRYGIHWVRQAPGKGLEWVAVIWYDGSNKYYADSVKGRFTISRDNSKNTLYLLMNSLRAEDSAVYYCARRAGIPGTTGYYYGMDVWGQGTTVTVSS
VL: SYELTQPPSVSVSPGQTASITCSGDRLGEKYVCWYQQKPGQSPILVIYQDNKWPSGIPERFSGSNSGNTATLTISGTQAMDEADYYCQAWDSSTVVFGGGTKLTVLG
notes: Bin 4
B11: binds (Cyno Cadherin-19); binds (Human Cadherin-19).

B12: hu anti-<huCDH19> 26D1.1 (1-469)(R27G,G82R) VH::huIgG1z + 26D1.1 (1-235)(H1Q,S7P) VL::huLLC-C2 (Ab ID 14088) (antibody, V domains shown)
VH: QVQLVQSGAEVKKPGASVKVSCKASGYTFTSYYMSWVRQAPGQGLEWMGIIHPSGGDTTYAQKFQGRVTMTRDTSTSTVYMELSSLRSEDTAVYYCARGGIKLWLHFDYWGQGTLVTVSS
VL: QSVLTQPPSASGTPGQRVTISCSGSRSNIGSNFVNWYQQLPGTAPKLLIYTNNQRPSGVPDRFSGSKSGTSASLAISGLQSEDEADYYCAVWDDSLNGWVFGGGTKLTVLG
notes: Engineered variant of 26D1; the entries already carry the changes; Bin 2
B12: binds [1]; binds [2]; binds [3].

B13: hu anti-<huCDH19> 25F8.1 VH::huIgG1z + 25F8.1 (1-235)(K45Q,S102A) VL::huLLC-C2 (Ab ID 14094) (antibody, V domains shown)
VH: QVQLVQSGAEVKKPGASVKVSCKASGYTFTSYYIHWVRQAPGQGLEWMGIINPSGGSTRYAQKFQGRVTMTRDTSTSTVFMELSSLRSEDTAVYYCARGGIQLWLHFDYWGQGTLVTVSS
VL: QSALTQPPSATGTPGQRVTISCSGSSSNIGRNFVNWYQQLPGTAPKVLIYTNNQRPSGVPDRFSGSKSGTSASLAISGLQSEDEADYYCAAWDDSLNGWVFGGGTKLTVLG
notes: Engineered variant of 25F8; the entries already carry the changes; Bin 2
B13: binds [1]; binds [2]; binds [3].

B14: hu anti-<huCDH19> 25F8.1 (Ab ID 13880) (antibody, human IgG1, lambda, V domains shown)
VH: QVQLVQSGAEVKKPGASVKVSCKASGYTFTSYYIHWVRQAPGQGLEWMGIINPSGGSTRYAQKFQGRVTMTRDTSTSTVFMELSSLRSEDTAVYYCARGGIQLWLHFDYWGQGTLVTVSS
VL: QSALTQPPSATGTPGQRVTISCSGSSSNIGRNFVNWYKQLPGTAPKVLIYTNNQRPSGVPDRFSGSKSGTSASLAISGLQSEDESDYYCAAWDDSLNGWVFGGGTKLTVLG
notes: huIgG1z / huLLC-C2; Bin 2
B14: binds (Cyno Cadherin-19); binds [1]; binds [2]. B14: binds [3]; binds (Human Cadherin-19).

Reference: patent publication US20220127354A1 (Amgen, published 2022)
